Non-standard residues stand in square brackets, D forms with d. No end group written: not given here. *: point of attachment. Biotin = O=C1N[C@H]2[C@H](CS[C@H]2CCCCC(=O)*)N1; Ahx = NCCCCCC(=O)O
Columns and labels:
[1] = target: recombinant CD40 associated with the constant part of the heavy chain of mouse IgG2a (human CD40 muIg fusion protein, ANCELL Corporation) (human; mouse) (UniProt P25942); test: SPR (BIAcore 3000): CD40 muIg captured by anti-mouse Ig, ligand injected as analyte
[2] = target: membranous CD40 on Burkitt's lymphoma cells (BL41, Raji) (UniProt P25942); test: flow cytometry on BL41 cells, 2.5 µM biotinylated L41 developed with streptavidin-FITC; the control panel without streptavidin-FITC (BL41 L41 2.5 -SAvFITC) prints 1.3% for the same quadrant
Chain of membranous CD40 on Burkitt's lymphoma cells (BL41, Raji) (P25942 21-277 limits assumed): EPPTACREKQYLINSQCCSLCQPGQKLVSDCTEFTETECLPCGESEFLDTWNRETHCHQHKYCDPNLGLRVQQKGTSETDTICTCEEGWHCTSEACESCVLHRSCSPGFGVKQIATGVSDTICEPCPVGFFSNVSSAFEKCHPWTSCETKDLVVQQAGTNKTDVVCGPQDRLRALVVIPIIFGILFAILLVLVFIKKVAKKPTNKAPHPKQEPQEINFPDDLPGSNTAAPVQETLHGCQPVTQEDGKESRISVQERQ

[3] = target: membranous CD40 on Burkitt's lymphoma cells (BL41, Raji) (UniProt P25942); test: flow cytometry on BL41 cells, 2.5 µM biotinylated L41 developed with streptavidin-FITC; the control panel without streptavidin-FITC (BL41 L41 2.5 -SAvFITC) prints 4.3% for the same quadrant
[4] = target: T1, recombinant CD40 associated with the constant part of the heavy chain of mouse IgG2a (human CD40 muIg fusion … (human; mouse, UniProt P25942 21-193, limits assumed); test: SPR (BIAcore 3000): CD40 muIg captured by anti-mouse Ig, ligand injected as analyte
T1 construct: Bought reagent; Captured on the chip by rabbit antibodies against the constant part of mouse immunoglobulins; not shown: constant part of the heavy chain of mouse IgG2a
T1 sequence (P25942 21-193 limits assumed): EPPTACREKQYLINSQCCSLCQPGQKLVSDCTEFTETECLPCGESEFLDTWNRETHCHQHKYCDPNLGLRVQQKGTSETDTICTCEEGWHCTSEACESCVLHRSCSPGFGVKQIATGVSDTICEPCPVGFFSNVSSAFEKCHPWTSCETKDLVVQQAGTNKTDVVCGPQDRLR

Chain of recombinant CD40 associated with the constant part of the heavy chain of mouse IgG2a (human CD40 muIg fusion protein, ANCELL Corporation) (human; mouse) (P25942 21-193 limits assumed): as above

Binder | Kd [1] [nM] | % of cells in the upper right quadrant (FL1-H above the line, high FSC-H) [2] [%] | % of cells in the upper left quadrant (FL1-H above the line, low FSC-H) [3] [%] | Kd [4] [nM]
L41 ligand (compound A), biotinylated (also: three KGYY-Ahx arms, each Ahx amide-linked to side-chain amines of Lys2, Lys4, Lys6 of the cyclic chain, head-to-tail to a chain's N/C-terminus) peptide: KGYY[Ahx] [dA]K[dK](Biotin)K[dA]K | 28 | 23.5 | 10.2 | –
L40 ligand, compound of formula (III-e) (also: chain 2 cyclised head to tail, three chain-1 arms, each Ahx carboxyl amide-linked to one Lys side-chain amine of cyclic chain 2 (C3-symmetric trimer), head-to-tail to a chain's N/C-terminus, Branched synthetic trimer with C3 symmetry: three pentapeptide arms on a cyclic hexapeptide) peptide: H-K[dP]YY[Ahx] K[dA]K[dA]K[dA] | – | – | – | 310

— US20100183642A1 (CENTRE NATIONAL DE LA RECHERCHE SCIENTIFIQUE, published 2010)
